Key:
[1] = molecular target: T1, SGR_2426r (SGR_2426 protein) (Streptomyces griseus, UniProt B1W1N0, E318G); assay: X-ray crystal structure, soaked crystal; format: binding; settings: 500 mM Sop2 soak, about 2 h; subsites -1 and +1; mutant printed E316G once
T1 construct: full length (no signal peptide), C-terminal His6 tag kept, pET30a, E. coli BL21(DE3); monomer by PISA

purified protein [2] = substrate: O=[N+]([O-])c1ccc(O[C@@H]2O[C@H](CO)[C@@H](O)[C@H](O)[C@H]2O)cc1; assay: purified protein; settings: pH 6.5
purified protein [3] = substrate: O=[N+]([O-])c1ccc(O[C@@H]2O[C@H](CO)[C@H](O)[C@H](O)[C@H]2O)cc1; assay: purified protein; settings: pH 6.5
[4] = substrate: C[C@H]1O[C@@H](Oc2ccc([N+](=O)[O-])cc2)[C@H](O)[C@@H](O)[C@H]1O; assay: p-nitrophenol release, biphasic fit; format: biochemical, Streptomyces griseus; settings: pH 6.5, first (stronger) site of biphasic equation
Excerpt: p-nitrophenol release, biphasic fit on SGR_2426r (SGR_2426 protein)

T1 sequence (B1W1N0 entry or part of it E318G): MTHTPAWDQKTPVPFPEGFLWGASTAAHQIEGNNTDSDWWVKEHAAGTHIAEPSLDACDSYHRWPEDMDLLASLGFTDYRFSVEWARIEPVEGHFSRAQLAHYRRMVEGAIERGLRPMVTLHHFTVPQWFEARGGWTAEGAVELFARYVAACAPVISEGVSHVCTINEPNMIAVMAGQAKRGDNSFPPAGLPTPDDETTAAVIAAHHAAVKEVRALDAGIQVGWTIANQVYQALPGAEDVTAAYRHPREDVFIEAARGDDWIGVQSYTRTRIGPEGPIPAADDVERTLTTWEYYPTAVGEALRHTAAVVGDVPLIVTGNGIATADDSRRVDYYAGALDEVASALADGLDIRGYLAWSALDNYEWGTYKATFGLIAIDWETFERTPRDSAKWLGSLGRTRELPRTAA

Molecule	X-ray crystal structure, soaked crystal [1]	Km (purified protein [2]) [µM]	Vmax (purified protein [2]) [µmol/min/mg]	Vmax/Km (purified protein [2]) [µL/min/mg]	Km (purified protein [3]) [µM]	Vmax (purified protein [3]) [µmol/min/mg]	Vmax/Km (purified protein [3]) [µL/min/mg]	Km [4] [µM]	Vmax [4] [µmol/min/mg]	Vmax/Km [4] [µL/min/mg]
OC[C@H]1O[C@@H](O[C@H]2C(O)O[C@H](CO)[C@@H](O)[C@@H]2O)[C@H](O)[C@@H](O)[C@@H]1O (stereo partly shown) [Sop2, sophorose]	crystals of the E318G mutant prepared without Sop2 were soaked	–	–	–	–	–	–	–	–	–
SGR_2426r (SGR_2426 protein) (Streptomyces griseus subsp. griseus NBRC 13350) (protein, full length (no signal peptide), C-terminal His6 tag kept, pET30a, E. coli BL21(DE3); monomer by PISA) MTHTPAWDQKTPVPFPEGFLWGASTAAHQIEGNNTDSDWWVKEHAAGTHIAEPSLDACDSYHRWPEDMDLLASLGFTDYRFSVEWARIEPVEGHFSRAQLAHYRRMVEGAIERGLRPMVTLHHFTVPQWFEARGGWTAEGAVELFARYVAACAPVISEGVSHVCTINEPNMIAVMAGQAKRGDNSFPPAGLPTPDDETTAAVIAAHHAAVKEVRALDAGIQVGWTIANQVYQALPGAEDVTAAYRHPREDVFIEAARGDDWIGVQSYTRTRIGPEGPIPAADDVERTLTTWEYYPTAVGEALRHTAAVVGDVPLIVTENGIATADDSRRVDYYAGALDEVASALADGLDIRGYLAWSALDNYEWGTYKATFGLIAIDWETFERTPRDSAKWLGSLGRTRELPRTAA	–	1000 ± 100	28	28000	5800 ± 300	13	2300	160 ± 100	4.6	29000
